Measured values from patent US20160264664A1 (Ablynx, published 2016).
Where two headings read alike, the source gives them in different places.

Tests used:
Human CXCL12/SDF-1 alpha = biological target: T1, Human CXCL12/SDF-1 alpha (human, UniProt P48061-2 22-89, biotinylated or 125I-labelled); experiment: flow cytometry (Fluorokine kit) on CXCR4-transfected HEK293 but not parental HEK293 cells
T1 construct: also called CXCL12/SDF-la; SDF-1
Description: To verify the functional expression of human CXCR4, the endotoxin-free pVAX1-CXCR4 plasmid was transiently transfected into HEK293 cells using Eugene (Roche) to monitor in vitro extracellular expression via flow cytometry.

human P2X7 = biological target: T2, human P2X7 (human, UniProt Q99572 1-595); experiment: flow cytometry, Nanobody pre-incubated with anti-Myc-FITC
T2 construct: on transfected Hek293 cells; also called hP2X7
T2 sequence: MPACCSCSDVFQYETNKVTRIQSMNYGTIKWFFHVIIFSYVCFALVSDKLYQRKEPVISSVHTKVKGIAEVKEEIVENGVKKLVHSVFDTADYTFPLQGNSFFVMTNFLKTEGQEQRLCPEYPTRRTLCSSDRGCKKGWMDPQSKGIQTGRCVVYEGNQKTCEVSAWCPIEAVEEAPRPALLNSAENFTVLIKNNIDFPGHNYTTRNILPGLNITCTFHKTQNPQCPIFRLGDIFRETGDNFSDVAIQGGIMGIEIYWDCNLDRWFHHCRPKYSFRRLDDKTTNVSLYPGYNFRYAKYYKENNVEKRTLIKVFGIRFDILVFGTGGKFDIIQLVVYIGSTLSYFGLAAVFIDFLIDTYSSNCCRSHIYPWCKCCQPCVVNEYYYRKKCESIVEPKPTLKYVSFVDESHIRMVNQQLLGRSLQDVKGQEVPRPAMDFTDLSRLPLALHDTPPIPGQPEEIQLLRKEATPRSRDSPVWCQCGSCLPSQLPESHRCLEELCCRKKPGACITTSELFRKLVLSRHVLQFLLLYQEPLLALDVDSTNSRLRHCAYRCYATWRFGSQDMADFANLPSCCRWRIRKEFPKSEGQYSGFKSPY

human P2X4 = biological target: T3, human P2X4 (human, UniProt Q99571 1-388); experiment: as above
T3 construct: whole, on cells; also called hP2X4
T3 sequence (looked up): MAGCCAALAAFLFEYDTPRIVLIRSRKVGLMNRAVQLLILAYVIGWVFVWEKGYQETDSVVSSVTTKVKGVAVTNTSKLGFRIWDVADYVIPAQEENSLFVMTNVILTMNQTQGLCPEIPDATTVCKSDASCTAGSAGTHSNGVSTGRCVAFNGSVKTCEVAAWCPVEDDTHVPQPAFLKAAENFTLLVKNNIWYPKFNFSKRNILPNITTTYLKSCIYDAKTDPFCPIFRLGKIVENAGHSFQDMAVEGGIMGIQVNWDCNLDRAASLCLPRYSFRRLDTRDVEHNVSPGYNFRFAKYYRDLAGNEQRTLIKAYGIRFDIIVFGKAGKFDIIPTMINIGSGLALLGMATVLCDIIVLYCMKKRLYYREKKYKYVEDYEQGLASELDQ

mouse P2X7 [1] = biological target: T4, mouse P2X7 (mouse, UniProt Q9Z1M0 1-595); experiment: cell-based or functional assay
T4 sequence: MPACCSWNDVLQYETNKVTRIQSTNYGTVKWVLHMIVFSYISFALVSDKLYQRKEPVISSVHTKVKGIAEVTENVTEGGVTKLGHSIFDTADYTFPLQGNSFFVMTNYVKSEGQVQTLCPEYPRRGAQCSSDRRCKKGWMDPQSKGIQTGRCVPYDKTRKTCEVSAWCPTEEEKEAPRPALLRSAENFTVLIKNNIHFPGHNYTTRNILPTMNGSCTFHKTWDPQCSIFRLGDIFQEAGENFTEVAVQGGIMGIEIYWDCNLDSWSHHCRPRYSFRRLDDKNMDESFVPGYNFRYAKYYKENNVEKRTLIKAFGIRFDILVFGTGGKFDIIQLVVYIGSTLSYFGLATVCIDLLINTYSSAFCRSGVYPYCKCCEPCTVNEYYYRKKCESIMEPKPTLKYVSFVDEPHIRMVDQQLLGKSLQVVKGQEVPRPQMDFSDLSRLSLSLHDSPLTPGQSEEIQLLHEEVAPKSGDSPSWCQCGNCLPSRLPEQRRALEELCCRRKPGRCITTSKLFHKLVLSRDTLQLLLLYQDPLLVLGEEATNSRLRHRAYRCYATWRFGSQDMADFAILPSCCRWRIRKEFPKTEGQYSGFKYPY

mouse P2X7 [2] = biological target: T4, mouse P2X7; experiment: flow cytometry, purified Nanobody titrated on mP2X7-CHO cells
mouse P2X7 [3] = biological target: T4, mouse P2X7; experiment: cell-based or functional assay; remark: listed apart in the source
mouse P2X7 [4] = biological target: T4, mouse P2X7; experiment: cell-based or functional assay; remark: listed apart in the source
mouse P2X7 [5] = biological target: T4, mouse P2X7; experiment: phage ELISA on fixed mP2X7-CHO vs untransfected CHO cells;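 also: phage culture supernatant diluted 10-fold, applied for 1 h to paraformaldehyde-fixed, BSA-blocked cells in 96-well plates, with bound phage read via HRP-linked anti-M13 antibody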
Protocol: (§1) Sub-confluent cells were rinsed with PBS and fixed using 4% paraformaldehyde in PBS for 10 minutes at RT. Fixed cells were washed three times with PBS, and blocked with 2% BSA in PBS for 2 hours. Following blocking, 10-fold diluted culture supernatant containing phage was added and incubated for 1 hour. Cell-bound phage was detected via mouse anti-M13-HRP-conjugate (GE Healthcare, Cat nr. E2886). Rat mAb Hano43 was used as positive control.

mouse P2X7 [6] = biological target: T4, mouse P2X7; experiment: flow cytometry, periplasmic extract pre-incubated with anti-myc-FITC, on mP2X7-Hek293 cells;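 also: periplasmic extract diluted 10-fold and premixed 45 min at 4 °C with FITC anti-myc antibody, giving pseudo-bivalent Nanobodies, before binding to the cells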
Protocol: Ten-fold diluted PE were pre-incubation with 0.5 μg anti-myc FITC-conjugated antibodies (AbD Serotec, cat no. MCA2200F) (creating pseudo-bivalent Nanobodies in order to increase binding strength) in 0.1 ml PBS/10% FCS for 45 minutes at 4° C. […] Alternatively, sequential staining of 10-fold diluted PE with anti-myc FITC-conjugated antibodies was done after incubation with the cells.

mouse P2X7 [7] = biological target: T4, mouse P2X7; experiment: phage ELISA, mP2X7-CHO vs control CHO cells
Protocol: as §1

mouse P2X7 mutant R151A = biological target: T5, mouse P2X7 mutant R151A (mouse, UniProt Q9Z1M0 1-595); experiment: flow cytometry, 1 µM Nanobody on transiently transfected Hek293 cells, normalised to Hano43 staining
T5 construct: transiently transfected Hek293 cells
T5 sequence: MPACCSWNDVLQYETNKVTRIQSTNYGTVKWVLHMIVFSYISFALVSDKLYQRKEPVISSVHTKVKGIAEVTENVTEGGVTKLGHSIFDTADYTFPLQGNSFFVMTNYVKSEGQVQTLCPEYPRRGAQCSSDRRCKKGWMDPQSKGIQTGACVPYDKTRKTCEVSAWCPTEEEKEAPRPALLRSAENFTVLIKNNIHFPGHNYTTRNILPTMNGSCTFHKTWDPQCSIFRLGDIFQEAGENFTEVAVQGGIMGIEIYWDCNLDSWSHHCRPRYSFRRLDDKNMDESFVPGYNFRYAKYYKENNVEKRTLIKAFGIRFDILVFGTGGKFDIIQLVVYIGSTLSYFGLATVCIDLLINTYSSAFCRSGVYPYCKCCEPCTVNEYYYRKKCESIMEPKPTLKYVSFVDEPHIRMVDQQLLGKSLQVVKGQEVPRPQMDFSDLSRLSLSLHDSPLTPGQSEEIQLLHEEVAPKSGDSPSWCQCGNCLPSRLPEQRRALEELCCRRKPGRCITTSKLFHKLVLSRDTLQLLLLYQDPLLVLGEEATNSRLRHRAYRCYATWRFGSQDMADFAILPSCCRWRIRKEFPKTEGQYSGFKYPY
Protocol: For flow cytometric assays, detection of Nanobodies was performed via anti-Myc and subsequent goat anti-mouse-PE conjugate, while an estimation of P2X7 expression densities was obtained via staining with rat monoclonal Hano43 followed by secondary anti-rat-PE conjugate.

T1 sequence (P48061 22-89 limits assumed): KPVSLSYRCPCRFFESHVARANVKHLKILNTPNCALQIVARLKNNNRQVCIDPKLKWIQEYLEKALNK

B1: human chemokine receptor CXCR4 (receptor, UniProt P61073 1-352, looked up)
chain: MEGISIYTSDNYTEEMGSGDYDSMKEPCFREENANFNKIFLPTIYSIIFLTGIVGNGLVILVMGYQKKLRSMTDKYRLHLSVADLLFVITLPFWAVDAVANWYFGNFLCKAVHVIYTVNLYSSVLILAFISLDRYLAIVHATNSQRPRKLLAEKVVYVGVWIPALLLTIPDFIFANVSEADDRYICDRFYPNDLWVVVFQFQHIMVGLILPGIVILSCYCIIISKLSHSKGHQKRKALKTTVILILAFFACWLPYYIGISIDSFILLEIIKQGCEFENTVHKWISITEALAFFHCCLNPILYAFLGAKFKTSAQHALTSVSRGSSLKILSKGKRGGHSSVSTESESSSFHSS
notes: whole, on cells; on transfected HEK293 or camelid (CAKI) cells, or as membrane vesicles / membrane extracts of transfected HEK293 cells; also called hCXCR4
binding result (Human CXCL12/SDF-1 alpha): binds

B2: P2X7PMP13A7 (VHH)
VHH: EVQLVESGGGLVQPGESLRLSCTASRFMLDYYDIGWFRQAPGKEREGVSCRFTNDGSTAYADSVKGRFTISRDIVKHTVYLQMNSLQPEDTAVYYCAAGPLTKRRQCVPGDFSMDFWGEGTLVTVSS
notes: family 22; on phage or c-myc/His6-tagged in assays
binding result (human P2X7): no binding (tested: 147 nM) | binding result (human P2X4): no binding (tested: 147 nM) | IC50 (read off the curve) (mouse P2X7 [1]): ~1 nM | EC50 (mouse P2X7 [2]): 3.4 nM | IC50 (read off the curve) (mouse P2X7 [3]): ~4 nM | ATP IC50 by 2 uM NB (head prints 'mM'; ligand titration at fixed Nanobody, CD62L shedding, Yac-1 cells) (mouse P2X7 [4]): 0.565 mM | IC50 (nM) against 20 uM NAD (CD62L shedding, Yac-1 cells) (mouse P2X7 [4]): 11 nM | IC50 (nM) against 100 uM ATP (CD62L shedding, Yac-1 cells) (mouse P2X7 [4]): 6 nM | Fold Cho P2X7/wt (phage ELISA) (mouse P2X7 [5]): 25 fold

B3: P2X7PMP8G11 (VHH)
VHH: AVQLVESGGGLVQAGGSLRLSCAASGNFFRVNTMAWYRQAPGKQRELVADITRGDRTNYADTVNGRFTISRDNVRNTVYLQMNGLRPEDTAAYYCYAVIELGVLEPRDYWGQGTQVTVSS
notes: family 5, 1; on phage or c-myc/His6-tagged in assays; also called 8011
binding result (human P2X4): no binding (tested: 147 nM) | IC50 (read off the curve) (mouse P2X7 [1]): ~20 nM | MFI FACS (pre-Myc incubation) (mouse P2X7 [6]): 166 MFI | IC50 (read off the curve) (mouse P2X7 [3]): ~60 nM | ATP IC50 by 2 uM NB (head prints 'mM'; ligand titration at fixed Nanobody, CD62L shedding, Yac-1 cells) (mouse P2X7 [4]): 0.389 mM | IC50 (nM) against 20 uM NAD (CD62L shedding, Yac-1 cells) (mouse P2X7 [4]): 68 nM | IC50 (nM) against 100 uM ATP (CD62L shedding, Yac-1 cells) (mouse P2X7 [4]): 37 nM | absorption ratio (ELISA) (mouse P2X7 [7]): 26 ratio | Fold Cho P2X7/wt (phage ELISA) (mouse P2X7 [5]): 26 fold | reduction of binding against WT mP2X7 (mouse P2X7 mutant R151A): > 90%
